From PMC2956967, “Cytochrome P450 102A2 Catalyzes Efficient Oxidation of Sodium Dodecyl Sulphate: A Molecular Tool for Remediation” (Enzyme Research, 2010)

T1: CYP102A2 (Bacillus subtilis, UniProt O08394)
T1 construct: gene cypD; full-length heme-diflavin reductase fusion, about 119 kDa per active site; PCR from genomic DNA, pCR T7/CT-TOPO, E. coli BL21(DE3); untagged enzyme and C-terminal 6His version both made, said kinetically alike
T1 sequence (O08394 1-1061): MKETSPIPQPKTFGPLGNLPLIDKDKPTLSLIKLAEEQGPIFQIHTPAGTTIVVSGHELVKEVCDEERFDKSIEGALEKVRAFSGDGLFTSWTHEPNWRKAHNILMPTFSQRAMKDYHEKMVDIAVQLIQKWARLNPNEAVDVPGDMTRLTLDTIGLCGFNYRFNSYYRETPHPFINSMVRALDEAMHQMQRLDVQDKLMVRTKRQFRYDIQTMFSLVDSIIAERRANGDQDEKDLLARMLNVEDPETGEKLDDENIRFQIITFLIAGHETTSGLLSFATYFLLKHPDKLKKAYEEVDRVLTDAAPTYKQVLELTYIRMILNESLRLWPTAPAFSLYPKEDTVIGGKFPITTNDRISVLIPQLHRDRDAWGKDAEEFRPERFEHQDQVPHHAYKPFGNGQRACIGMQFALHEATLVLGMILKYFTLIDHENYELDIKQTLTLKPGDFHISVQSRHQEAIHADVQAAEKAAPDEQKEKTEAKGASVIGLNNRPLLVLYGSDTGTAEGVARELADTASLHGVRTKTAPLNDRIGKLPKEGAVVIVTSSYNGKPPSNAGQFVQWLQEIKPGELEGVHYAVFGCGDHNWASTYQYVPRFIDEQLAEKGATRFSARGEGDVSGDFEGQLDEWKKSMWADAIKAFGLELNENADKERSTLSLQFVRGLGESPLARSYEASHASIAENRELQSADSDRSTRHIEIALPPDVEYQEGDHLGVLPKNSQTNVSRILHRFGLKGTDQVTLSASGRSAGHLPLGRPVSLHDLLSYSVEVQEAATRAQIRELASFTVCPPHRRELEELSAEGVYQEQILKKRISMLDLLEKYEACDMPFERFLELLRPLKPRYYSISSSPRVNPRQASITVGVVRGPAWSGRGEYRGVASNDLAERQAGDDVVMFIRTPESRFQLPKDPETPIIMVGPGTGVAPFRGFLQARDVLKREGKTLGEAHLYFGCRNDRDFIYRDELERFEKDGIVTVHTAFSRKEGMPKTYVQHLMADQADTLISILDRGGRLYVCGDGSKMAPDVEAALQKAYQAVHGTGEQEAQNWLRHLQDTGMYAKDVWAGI

B1: CYP102A2 (Bacillus subtilis subsp. subtilis str. 168) (protein)
chain: MKETSPIPQPKTFGPLGNLPLIDKDKPTLSLIKLAEEQGPIFQIHTPAGTTIVVSGHELVKEVCDEERFDKSIEGALEKVRAFSGDGLFTSWTHEPNWRKAHNILMPTFSQRAMKDYHEKMVDIAVQLIQKWARLNPNEAVDVPGDMTRLTLDTIGLCGFNYRFNSYYRETPHPFINSMVRALDEAMHQMQRLDVQDKLMVRTKRQFRYDIQTMFSLVDSIIAERRANGDQDEKDLLARMLNVEDPETGEKLDDENIRFQIITFLIAGHETTSGLLSFATYFLLKHPDKLKKAYEEVDRVLTDAAPTYKQVLELTYIRMILNESLRLWPTAPAFSLYPKEDTVIGGKFPITTNDRISVLIPQLHRDRDAWGKDAEEFRPERFEHQDQVPHHAYKPFGNGQRACIGMQFALHEATLVLGMILKYFTLIDHENYELDIKQTLTLKPGDFHISVQSRHQEAIHADVQAAEKAAPDEQKEKTEAKGASVIGLNNRPLLVLYGSDTGTAEGVARELADTASLHGVRTKTAPLNDRIGKLPKEGAVVIVTSSYNGKPPSNAGQFVQWLQEIKPGELEGVHYAVFGCGDHNWASTYQYVPRFIDEQLAEKGATRFSARGEGDVSGDFEGQLDEWKKSMWADAIKAFGLELNENADKERSTLSLQFVRGLGESPLARSYEASHASIAENRELQSADSDRSTRHIEIALPPDVEYQEGDHLGVLPKNSQTNVSRILHRFGLKGTDQVTLSASGRSAGHLPLGRPVSLHDLLSYSVEVQEAATRAQIRELASFTVCPPHRRELEELSAEGVYQEQILKKRISMLDLLEKYEACDMPFERFLELLRPLKPRYYSISSSPRVNPRQASITVGVVRGPAWSGRGEYRGVASNDLAERQAGDDVVMFIRTPESRFQLPKDPETPIIMVGPGTGVAPFRGFLQARDVLKREGKTLGEAHLYFGCRNDRDFIYRDELERFEKDGIVTVHTAFSRKEGMPKTYVQHLMADQADTLISILDRGGRLYVCGDGSKMAPDVEAALQKAYQAVHGTGEQEAQNWLRHLQDTGMYAKDVWAGI
notes: full-length heme-diflavin reductase fusion, about 119 kDa per active site; PCR from genomic DNA, pCR T7/CT-TOPO, E. coli BL21(DE3); untagged enzyme and C-terminal 6His version both made, said kinetically alike

Assays:
CYP102A2 = target: T1, CYP102A2; assay: product inhibition, NADPH oxidation at […] nm; type: biochemical
purified protein [1] = substrate: CCCCCCCCCCCC(=O)O; assay: purified protein; type: biochemical, Bacillus subtilis; settings: NADPH co-substrate, 0.1 M potassium phosphate pH 7.2, 37 °C, sigmoidal, nH 8.7
purified protein [2] = substrate: NC(=O)C1=CN([C@@H]2O[C@H](COP(=O)(O)OP(=O)(O)OC[C@H]3O[C@@H](n4cnc5c(N)ncnc54)[C@H](OP(=O)(O)O)[C@@H]3O)[C@@H](O)[C@H]2O)C=CC1; assay: purified protein; type: biochemical, Bacillus subtilis; settings: 1.735 mM SDS co-substrate, 0.1 M potassium phosphate pH 7.2, 37 °C, NADPH 6.6-100 μM
purified protein [3] = substrate: CCCCCCCCCCCCOS(=O)(=O)O; assay: purified protein; type: biochemical, Bacillus subtilis; settings: 0.1 mM NADPH, 0.1 M potassium phosphate pH 7.2, 37 °C, SDS 0.34-1.73 mM, sigmoidal, nH 5.7

Molecule | Ki (CYP102A2) | K0.5 (purified protein [1]) | Vmax (purified protein [1]) | Km (purified protein [2]) | kcat (purified protein [2]) | kcat/Km (purified protein [2]) | K0.5 (purified protein [3]) | Vmax (purified protein [3])
NC(=O)c1ccc[n+]([C@@H]2O[C@H](COP(=O)(O)OP(=O)(O)OC[C@H]3O[C@@H](n4cnc5c(N)ncnc54)[C@H](OP(=O)(O)O)[C@@H]3O)[C@@H](O)[C@H]2O)c1 [NADP^+] | 100 µM | – | – | – | – | – | – | –
B1 | – | 0.47 ± 0.005 mM | 0.088 µmol/min | 8.30 ± 0.62 µM | 2.05 ± 0.05 s⁻¹ | 250000 M⁻¹ s⁻¹ | 1.22 ± 0.04 mM | 0.18 µmol/min
